The nature of data set [1]: 4-HPAA reductase activity assay. Format: biochemical. The conditions noted are these: 5 mM 4-HPAA, 10 mM NADPH, five-minute time point. On the procedure: The phenylacetaldehyde reductase activity assays using Rr4HPAR1 and RrPAR2 were carried out in 200 μL reaction buffer (50 mM Tris, pH 8.0) at the presence of 2 mM phenylacetaldehyde, 5 mM NADPH and 5 μg of recombinant enzyme. The reactions were incubated at 30° C. for various time points, quenched with an equal volume of 0.8 M formic acid, and extracted by 100 μL of ethyl acetate. The organic phase was then analyzed by gas chromatography-mass spectrometry (GC-MS) using an 5% Phenyl Methyl Silox column (30 m×250 m×0.25 m, Agilent) with a temperature gradient as follows: 0-1 min 45° C., 4-13.33 min 45-185° C. The quadrupole MS was set to EI mode, electron energy at 70 eV, MS-source temperature at 230° C., MS-quad temperature at 150° C., scan mass range at 50-300 m/z and SIM for 120 m/z and 122 m/z. EI-MS spectra were compared against analytical standards. The 4-HPAA reductase activity assays were carried out in 100 μL of 50 mM Tris pH 8.0 with the addition of 5 mM 4-HPAA, 10 mM NADPH and 0.2 μg of Rr4HPAR1 or […] of Rr4HPAR2. […] The reaction mixture was then centrifuged and analyzed by LC-MS. […] Product formation was measured using select ion monitoring in positive mode for a centroid center mass of 121.065 with a scan width of 0.002. The specific activity was determined at a five-minute reaction time point, and quantified against a standard curve of tyrosol.

Data set [2] is described as follows: Phenylacetaldehyde reductase activity assay. Format: biochemical. Particulars: NADPH as co-substrate. Here is the method: FIG. 15 is a chromatogram showing the enzymatic reduction of phenylacetaldehyde to phenylethyl alcohol by Rr4HPAR1 and Rr4HPAR2. Chromatogram of positive ion mode metabolites between 50 and 300 m/z show the depletion of phenylacetaldehyde and production of phenylethyl alcohol when exposed to NADPH and Rr4HPAR1 or RrPAR2. Reactions were carried out in 200 μL 50 mM Tris, pH 8.0 in the presence of 2 mM phenylacetaldehyde, 5 mM NADPH and 50 μg of recombinant enzyme. The reactions were incubated at 30° C. for 25 minutes prior to quenching with 200 μL of 0.8 M formic acid, extracted with 100 μL of ethyl acetate and analyzed by gas chromatography-mass spectrometry. Phenylethyl alcohol was verified by comparison to an authentic standard.
The phenylacetaldehyde reductase activity assays using Rr4HPAR1 and RrPAR2 were carried out in 200 μL reaction buffer (50 mM Tris, pH 8.0) at the presence of 2 mM phenylacetaldehyde, 5 mM NADPH and 5 μg of recombinant enzyme. […] The organic phase was then analyzed by gas chromatography-mass spectrometry (GC-MS) using an 5% Phenyl Methyl Silox column (30 m×250 m×0.25 m, Agilent) with a temperature gradient as follows: 0-1 min 45° C., 4-13.33 min 45-185° C. […] The reaction mixture was then centrifuged and analyzed by LC-MS. […] Product formation was measured using select ion monitoring in positive mode for a centroid center mass of 121.065 with a scan width of 0.002. […]

Turning to “Rr4HPAR1: R. rosea 4-hydroxyphenylacetaldehyde reductase, reduces 4-HPAA to tyrosol”, the “specific activity towards 4-HPAA” value in data set [1] came to 6.9 µmol/min/mg. In data set [2], the “reduction of phenylacetaldehyde to phenylethanol” value is listed as “higher activity”.

These data come from patent publication US12385055B2, “Compositions and methods for production of salidroside, icariside D2, and precursors of salidroside and icariside D2” (Whitehead Institute for Biomedical Research, priority 2017, dated 2025).
